Source: paper PMC11145656 (Structure (London, England : 1993), 2023)

Legend:
Assay in all cases: BLI
SARS-CoV-1 RBD = SARS-CoV-1 RBD (SARS-CoV-1)
[1] = molecular target: SARSr-CoV Rs4874-GCN S protein (Bat SARS-like coronavirus isolate Rs4874, strain)
[2] = molecular target: SARSr-CoV Rs4231-T4 S protein (bat SARS-related CoV Rs4231)

Binder | binding result (SARS-CoV-1 RBD) | binding result [1] | binding result [2]
Ab246 IgG1 (antibody, V domains shown) VH: QVQLQESGPGLVKPSETLSLTCSVSGDSIGTYYWSWIRQSPEKGLEWIGYIHHSGKTNYNPSLKSRVTMSVDTSKNQFSLKLTSVTAADTAVYYCARSPIGYCSSTKCYIDKPFDSWGQGTLVTVSS VL: QAVLTQPSSLSASPGASASLTCTLRGGINVVNQRLYWYQQKPGSPPRFLLKYKSDSDNFLGSGVPSRFSGSKDASANAGILLISEVQSEDEADYYCMMWHSSAYVFGGGTKLTVL | binds | binds | –
CR3022 IgG1 (antibody, V domains shown) VH: EVQLVQSGTEVKKPGESLKISCKGSGYGFITYWIGWVRQMPGKGLEWMGIIYPGDSETRYSPSFQGQVTISADKSINTAYLQWSSLKASDTAIYYCAGGSGISTPMDVWGQGTTVTVSS VL: not shown | – | binds | binds
